Experiment [1] addresses T1, IRTA5 expressed on transfected CHO cells (full-length transmembrane form with N-terminal epitope tag) (human, UniProt Q96LA6 17-429).
T1 construct: Neither the signal peptide limits nor the tag is stated; also called CHO line transfected with IRTA5; human IRTA-5
T1 sequence: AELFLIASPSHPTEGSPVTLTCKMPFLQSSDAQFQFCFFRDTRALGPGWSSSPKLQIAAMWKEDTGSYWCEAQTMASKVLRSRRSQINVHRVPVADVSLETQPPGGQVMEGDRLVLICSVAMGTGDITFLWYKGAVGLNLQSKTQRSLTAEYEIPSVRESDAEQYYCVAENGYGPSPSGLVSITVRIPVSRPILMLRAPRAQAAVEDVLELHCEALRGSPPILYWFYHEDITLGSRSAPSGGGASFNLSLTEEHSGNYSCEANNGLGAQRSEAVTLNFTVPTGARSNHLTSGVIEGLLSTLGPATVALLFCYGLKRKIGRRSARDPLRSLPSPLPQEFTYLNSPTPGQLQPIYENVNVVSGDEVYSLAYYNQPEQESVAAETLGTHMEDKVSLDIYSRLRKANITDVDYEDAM
The experiment in a line: flow cytometry on IRTA5-CHO cells, antibody at 10 µg/ml, FITC-labeled anti-human IgG; the log y axis has no label on the sheet (MFI per the text). An excerpt:
(§1) Chinese hamster ovary (CHO) cell lines that express one of each of the five IRTA proteins at the cell surface were developed and used to determine the specificity of the IRTA5 HuMAbs by flow cytometry. CHO cells were transfected with expression plasmids containing full length cDNA encoding transmembrane forms of IRTA1, IRTA2, IRTA3, IRTA4, or IRTA5. In addition, the transfected proteins contained an epitope tag at the N-terminus for detection by an antibody specific for the epitope. Binding of the seven anti-IRTA5 HuMAbs was assessed by incubating the transfected cells with each of the IRTA5 Abs at a concentration of 10 μg/ml. The cells were washed and binding was detected with a FITC-labeled anti-human IgG Ab. A murine anti-epitope tag Ab, followed by labeled anti-murine IgG, was used as the positive control. Non-specific human and murine Abs were used as negative controls. The results are depicted in FIG. 9. The IRTA5 HuMAbs bound to the CHO line transfected with IRTA5 but not to CHO lines expressing IRTA1, 2, or 4 as measured by the mean fluorescent intensity (MFI) of staining.

Experiment [2] concerns the target T2, IRTA1 expressed on transfected CHO cells (full-length transmembrane form with N-terminal epitope tag) (human, UniProt Q96PJ5 20-515).
T2 construct: also called CHO line expressing IRTA1
T2 sequence: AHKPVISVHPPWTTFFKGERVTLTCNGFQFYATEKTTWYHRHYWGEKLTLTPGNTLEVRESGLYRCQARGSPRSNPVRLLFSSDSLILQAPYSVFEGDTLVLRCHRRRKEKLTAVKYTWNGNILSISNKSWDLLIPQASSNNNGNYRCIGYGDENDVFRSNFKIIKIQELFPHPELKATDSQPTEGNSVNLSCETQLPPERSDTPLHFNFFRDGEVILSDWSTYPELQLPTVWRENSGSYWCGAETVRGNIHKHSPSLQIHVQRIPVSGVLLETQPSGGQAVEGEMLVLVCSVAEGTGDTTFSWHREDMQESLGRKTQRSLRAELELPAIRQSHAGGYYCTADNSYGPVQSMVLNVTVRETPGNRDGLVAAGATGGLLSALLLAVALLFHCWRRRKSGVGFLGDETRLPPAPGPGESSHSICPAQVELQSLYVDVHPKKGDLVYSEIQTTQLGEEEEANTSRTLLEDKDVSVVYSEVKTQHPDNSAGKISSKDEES
The experiment in a line: flow cytometry on IRTA1-CHO cells, FITC-labeled anti-human IgG.
Text: as §1

Experiment [3] addresses T3, IRTA5 protein as naturally expressed on human peripheral blood B lymphocytes and B cell tumor lines (human, UniProt Q96LA6 17-429).
T3 construct: Endogenous protein on untransfected human cells; also called IRTA-5 on CD19+ B cells, Daudi, Ramos, SU-DHL-4
T3 sequence: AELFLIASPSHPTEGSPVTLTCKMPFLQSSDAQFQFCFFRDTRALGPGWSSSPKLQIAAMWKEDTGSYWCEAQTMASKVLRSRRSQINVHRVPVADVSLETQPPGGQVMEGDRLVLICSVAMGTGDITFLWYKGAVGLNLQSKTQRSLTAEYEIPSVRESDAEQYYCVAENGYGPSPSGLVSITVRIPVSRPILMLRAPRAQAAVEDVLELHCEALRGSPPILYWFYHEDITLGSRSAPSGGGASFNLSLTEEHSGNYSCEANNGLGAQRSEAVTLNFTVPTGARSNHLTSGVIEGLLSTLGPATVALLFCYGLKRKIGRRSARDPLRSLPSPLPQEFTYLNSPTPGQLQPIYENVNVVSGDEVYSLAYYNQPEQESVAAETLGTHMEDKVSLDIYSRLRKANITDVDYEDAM
Put plainly: two-colour flow cytometry on human PBMC: biotinylated antibody plus FITC-streptavidin (FL1) against PE anti-CD19 (FL2). Here is the method:
CD19 is a cell surface marker that can be used to distinguish peripheral blood B lymphocytes. Human peripheral blood mononuclear cells were incubated with biotinylated 2G5, biotinylated 7G8, or an isotype control biotinylated human Ab. Cells were washed and were incubated with FITC-labeled streptavidin together with a phycoerythrin-labeled anti-CD19 antibody. Cells were washed and analyzed by flow cytometry. The results are depicted in FIG. 10A. Lymphocytes were gated as black “dots” and monocytes were gated as grey “dots”. Wavelengths were selected to screen for FITC (FL 1) and phycoerythrin (FL2) signaling. […] 2G5+ or 7G8+ cells (ordinate) were also predominantly CD19+, localizing to the double-positive, upper right quadrant.
Background: A flow cytometer gives signals particle by particle.

For experiment [4], the target named is T4, IRTA3 expressed on transfected CHO cells (full-length transmembrane form with N-terminal epitope tag) (human, UniProt Q96P31 18-734).
T4 construct: also called CHO line expressing IRTA3
T4 sequence: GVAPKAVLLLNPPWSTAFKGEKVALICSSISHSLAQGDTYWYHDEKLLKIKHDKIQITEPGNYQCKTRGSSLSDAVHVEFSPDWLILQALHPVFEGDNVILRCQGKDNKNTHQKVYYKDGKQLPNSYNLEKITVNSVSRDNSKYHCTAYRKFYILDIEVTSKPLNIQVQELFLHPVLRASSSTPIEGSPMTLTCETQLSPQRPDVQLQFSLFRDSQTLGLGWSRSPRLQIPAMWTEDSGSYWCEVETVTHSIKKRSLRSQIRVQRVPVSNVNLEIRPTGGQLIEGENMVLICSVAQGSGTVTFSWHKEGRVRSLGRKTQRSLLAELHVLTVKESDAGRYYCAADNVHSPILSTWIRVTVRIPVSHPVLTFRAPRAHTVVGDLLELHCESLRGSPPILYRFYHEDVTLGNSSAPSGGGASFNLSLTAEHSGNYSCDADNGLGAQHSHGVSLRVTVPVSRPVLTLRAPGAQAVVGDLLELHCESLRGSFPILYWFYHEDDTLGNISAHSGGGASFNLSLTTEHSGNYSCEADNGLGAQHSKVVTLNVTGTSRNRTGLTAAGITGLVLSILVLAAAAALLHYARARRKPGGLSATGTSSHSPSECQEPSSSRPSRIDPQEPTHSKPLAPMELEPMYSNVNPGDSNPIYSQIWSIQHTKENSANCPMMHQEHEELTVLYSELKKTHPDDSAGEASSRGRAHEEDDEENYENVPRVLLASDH
Put plainly: flow cytometry on transfected CHO cells.
Text: as §1

Experiment [5] has as its target T3, IRTA5 protein as naturally expressed on …. The experiment in a line: flow cytometry on Daudi and Ramos cells, PE anti-human secondary antibody. How it is done:
The cell lines were incubated with each of the IRTA5 HuMAbs or a control human antibody, washed and detected by a phycoerythrin-labeled anti-human secondary antibody. […] The remaining 6 IRTA5 HuMAbs show a similar binding pattern (data not shown).

B1: human monoclonal antibody 7G8 (antibody, V domains shown)
VH: DVHLVQSGGGLVHPGGSLRLSCAGSGFTFSTYTMHWIRQAPGKDLEWVSAIGTGGGTDYADSVKGRFTISRDNAKNSLYLQMNSLRAEDMAVYYCAREVYWYFDLWGRGTLVTVSS
VL: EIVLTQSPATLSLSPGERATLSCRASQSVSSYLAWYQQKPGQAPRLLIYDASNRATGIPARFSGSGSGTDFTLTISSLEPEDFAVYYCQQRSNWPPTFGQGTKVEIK
notes: Fully human IgG with kappa light chain from an HCo7 HuMab Mouse hybridoma; also called IRTA5 HuMAb 7G8; biotinylated 7G8
For B1, the binding result in experiment [1] is “binds”; in experiment [2], “no binding (tested: 10 µg/ml)”; in experiment [3], “binds”; in experiment [4] it was “no binding”.

B2: human monoclonal antibody 2G5 (antibody, V domains shown)
VH: QVQLVESGGGVVQPGRSLRLSCAASGFTFSDYGMHWVRQAPGKGLEWVAVIWYDGNNKYYADSVKGRFTISRDNSKNTLYLQMNSLRAEDTAVYYCARDWGRAFDIWGQGTMVTVSS
VL: EIVLTQSPATLSLSPGERATLSCRASQSVSSYLAWYQQKPGQAPRLLIYDASNRATGIPARFSGSGSGTDFTLTISSLEPEDFALYYCQQLNNWPPYTFGQGTKLEIK
notes: Fully human IgG with kappa light chain from an HCo7 HuMab Mouse hybridoma; also called IRTA5 HuMAb 2G5; biotinylated 2G5
For the molecule B2, the binding result was “binds” in experiment [1], “no binding (tested: 10 µg/ml)” in experiment [2], “binds” in experiment [3] and “no binding” in experiment [4].

B3: human monoclonal antibody 5A2 (antibody, V domains shown)
VH: QVQVVESGGGVVQPGRSLRLSCAASGFTFSNYGMHWVRQAPGKGLEWVAGIWYDGSNKYYADSVKGRFTISRDNSKNTLYLQMNSLRAEDTAVYYCARESPNFDYWGQGTLVTVSS
VL: EIVLTQSPATLSLSPGERATLSCRASQSVSSYLAWYQQKPGQAPRLLIYDASNRATGIPARFSGSGSGTDFTLTISSLEPEDFAVYYCQQRNNWPPWTFGQGTKVEIK
notes: Fully human IgG with kappa light chain from an HCo7 HuMab Mouse hybridoma
For the molecule B3, the binding result in experiment [1] is “binds”; in experiment [2], “no binding (tested: 10 µg/ml)”; in experiment [5], “binds”; in experiment [4] it was “no binding”.

(Values after patent US20050266008A1 (Bristol-Myers Squibb, published 2005).)
